Results as given in paper PMC10786891, “Massively parallel profiling of RNA-targeting CRISPR-Cas13d”.

T1: EsCas13d, nuclease-dead (Eubacterium siraeum, UniProt B0MS50, R295A;H300A;R849A;H854A)
T1 sequence: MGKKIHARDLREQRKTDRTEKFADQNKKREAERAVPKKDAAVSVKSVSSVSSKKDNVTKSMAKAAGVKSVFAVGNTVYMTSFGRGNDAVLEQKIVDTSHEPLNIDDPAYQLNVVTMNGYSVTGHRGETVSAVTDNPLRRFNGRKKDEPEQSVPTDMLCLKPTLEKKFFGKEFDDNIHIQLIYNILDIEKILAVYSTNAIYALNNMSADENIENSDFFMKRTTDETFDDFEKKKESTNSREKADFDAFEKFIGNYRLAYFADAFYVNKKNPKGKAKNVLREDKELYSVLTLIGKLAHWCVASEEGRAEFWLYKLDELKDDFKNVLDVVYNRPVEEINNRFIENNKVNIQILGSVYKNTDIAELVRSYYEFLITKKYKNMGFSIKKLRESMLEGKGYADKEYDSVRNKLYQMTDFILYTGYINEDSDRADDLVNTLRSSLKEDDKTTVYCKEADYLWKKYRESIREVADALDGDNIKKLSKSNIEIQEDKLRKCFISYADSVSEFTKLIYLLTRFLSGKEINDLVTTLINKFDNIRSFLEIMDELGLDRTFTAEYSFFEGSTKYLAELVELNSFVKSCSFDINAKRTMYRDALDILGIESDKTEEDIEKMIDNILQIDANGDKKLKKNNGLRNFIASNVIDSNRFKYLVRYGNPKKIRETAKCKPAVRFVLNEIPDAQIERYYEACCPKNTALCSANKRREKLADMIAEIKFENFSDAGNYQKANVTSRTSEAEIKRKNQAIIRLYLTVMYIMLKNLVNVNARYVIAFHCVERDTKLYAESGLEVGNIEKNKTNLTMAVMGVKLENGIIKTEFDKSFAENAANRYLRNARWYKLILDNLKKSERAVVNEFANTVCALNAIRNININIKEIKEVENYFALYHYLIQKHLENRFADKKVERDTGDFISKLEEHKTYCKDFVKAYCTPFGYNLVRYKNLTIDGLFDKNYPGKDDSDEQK


target: T1, EsCas13d, nuclease-dead; assay: crRNA (strand 1, pre-loaded); Mg2+; 40 mM Tris-HCl pH 7.5, 150 mM NaCl, 6 mM MgCl2, 1 mM DTT, 0.1% Tween-20, 0.2 mg/ml BSA; 25 C; 10 min per concentration, then washed; details: tags: His6-TwinStrep-SUMO cleaved; N-terminal SNAP kept (SNAP-Surface 488); label: 3' end held by stalled T7 RNA polymerase

| Binder | Kd [nM] |
| --- | --- |
| target 1 insA 3' of 7,insG 3' of 3 (mixed) RNA 1: CACCCGUGCAAAAAUGCAGGGGUCUAAAACUGAGCGGAUAACCUCUCUAUGG RNA 2: GGGAAUGGAUCCACAUCUACGAAUUCGUACCAUAGAGAGGUUAUCACGCUGCACCGAGAUCGGAAGAGCACACGU | 4.65 ± 0.13 |
| target 1 insA 3' of 8,insA 3' of 8 (mixed) RNA 1: CACCCGUGCAAAAAUGCAGGGGUCUAAAACUGAGCGGAUAACCUCUCUAUGG RNA 2: GGGAAUGGAUCCACAUCUACGAAUUCGUACCAUAGAGAGGUUAUAACCGCUCACCGAGAUCGGAAGAGCACACGU | 32.2 ± 3.2 |
| target 1 A1C,C2G (mixed) RNA 1: CACCCGUGCAAAAAUGCAGGGGUCUAAAACUGAGCGGAUAACCUCUCUAUGG RNA 2: GGGAAUGGAUCCACAUCUACGAAUUCGUACCAUAGAGAGGUUAUCCGCUGCCCGAGAUCGGAAGAGCACACGU | 35 ± 4 |
| target 2 MT 5'PFS GUA 3'PFS UCA (mixed) RNA 1: CACCCGUGCAAAAUUGCAGGGGUCUAAAACCUUCUCCAAAUUGUUUCAUCCU RNA 2: GGGAAUGGAUCCACAUCUACGAAUUCGUAAGGAUGAAACAAUUUGGAGAAGUCAAGAUCGGAAGAGCACACGU | 10.3 ± 1.2 |
| target 2 MT 5'PFS CGA 3'PFS AUU (mixed) RNA 1: CACCCGUGCAAAAUUGCAGGGGUCUAAAACCUUCUCCAAAUUGUUUCAUCCU RNA 2: GGGAAUGGAUCCACAUCUACGAAUUCCGAAGGAUGAAACAAUUUGGAGAAGAUUAGAUCGGAAGAGCACACGU | 10.6 ± 3.3 |
| target 2 MT 5'PFS GAG 3'PFS ACU (mixed) RNA 1: CACCCGUGCAAAAUUGCAGGGGUCUAAAACCUUCUCCAAAUUGUUUCAUCCU RNA 2: GGGAAUGGAUCCACAUCUACGAAUUCGAGAGGAUGAAACAAUUUGGAGAAGACUAGAUCGGAAGAGCACACGU | 8.1 ± 0.7 |
| target 2 MT 5'PFS CUA 3'PFS UCA (mixed) RNA 1: CACCCGUGCAAAAUUGCAGGGGUCUAAAACCUUCUCCAAAUUGUUUCAUCCU RNA 2: GGGAAUGGAUCCACAUCUACGAAUUCCUAAGGAUGAAACAAUUUGGAGAAGUCAAGAUCGGAAGAGCACACGU | 2.17 ± 0.35 |
| target 2 MT 5'PFS AGA 3'PFS UGU (mixed) RNA 1: CACCCGUGCAAAAUUGCAGGGGUCUAAAACCUUCUCCAAAUUGUUUCAUCCU RNA 2: GGGAAUGGAUCCACAUCUACGAAUUCAGAAGGAUGAAACAAUUUGGAGAAGUGUAGAUCGGAAGAGCACACGU | 9.5 ± 1.2 |
| target 2 MT 5'PFS AUU 3'PFS AAG (mixed) RNA 1: CACCCGUGCAAAAUUGCAGGGGUCUAAAACCUUCUCCAAAUUGUUUCAUCCU RNA 2: GGGAAUGGAUCCACAUCUACGAAUUCAUUAGGAUGAAACAAUUUGGAGAAGAAGAGAUCGGAAGAGCACACGU | 5.6 ± 0.6 |
| target 2 MT 5'PFS AUG 3'PFS UUU (mixed) RNA 1: CACCCGUGCAAAAUUGCAGGGGUCUAAAACCUUCUCCAAAUUGUUUCAUCCU RNA 2: GGGAAUGGAUCCACAUCUACGAAUUCAUGAGGAUGAAACAAUUUGGAGAAGUUUAGAUCGGAAGAGCACACGU | 25 ± 6 |
| target 2 MT 5'PFS ACA 3'PFS ACU (mixed) RNA 1: CACCCGUGCAAAAUUGCAGGGGUCUAAAACCUUCUCCAAAUUGUUUCAUCCU RNA 2: GGGAAUGGAUCCACAUCUACGAAUUCACAAGGAUGAAACAAUUUGGAGAAGACUAGAUCGGAAGAGCACACGU | 6.3 ± 1.3 |
| target 2 MT 5'PFS GGU 3'PFS CAA (mixed) RNA 1: CACCCGUGCAAAAUUGCAGGGGUCUAAAACCUUCUCCAAAUUGUUUCAUCCU RNA 2: GGGAAUGGAUCCACAUCUACGAAUUCGGUAGGAUGAAACAAUUUGGAGAAGCAAAGAUCGGAAGAGCACACGU | 8.6 ± 1.4 |
| target 2 MT 5'PFS GGU 3'PFS CAG (mixed) RNA 1: CACCCGUGCAAAAUUGCAGGGGUCUAAAACCUUCUCCAAAUUGUUUCAUCCU RNA 2: GGGAAUGGAUCCACAUCUACGAAUUCGGUAGGAUGAAACAAUUUGGAGAAGCAGAGAUCGGAAGAGCACACGU | 13 ± 1 |
| target 2 MT 5'PFS CGC 3'PFS AUU (mixed) RNA 1: CACCCGUGCAAAAUUGCAGGGGUCUAAAACCUUCUCCAAAUUGUUUCAUCCU RNA 2: GGGAAUGGAUCCACAUCUACGAAUUCCGCAGGAUGAAACAAUUUGGAGAAGAUUAGAUCGGAAGAGCACACGU | 5 ± 0.8 |
| target 2 MT 5'PFS CGC 3'PFS AUC (mixed) RNA 1: CACCCGUGCAAAAUUGCAGGGGUCUAAAACCUUCUCCAAAUUGUUUCAUCCU RNA 2: GGGAAUGGAUCCACAUCUACGAAUUCCGCAGGAUGAAACAAUUUGGAGAAGAUCAGAUCGGAAGAGCACACGU | 4.6 ± 0.6 |
| target 2 MT 5'PFS ACA 3'PFS ACA (mixed) RNA 1: CACCCGUGCAAAAUUGCAGGGGUCUAAAACCUUCUCCAAAUUGUUUCAUCCU RNA 2: GGGAAUGGAUCCACAUCUACGAAUUCACAAGGAUGAAACAAUUUGGAGAAGACAAGAUCGGAAGAGCACACGU | 7.2 ± 2.3 |
| target 2 MT 5'PFS GGU 3'PFS CAU (mixed) RNA 1: CACCCGUGCAAAAUUGCAGGGGUCUAAAACCUUCUCCAAAUUGUUUCAUCCU RNA 2: GGGAAUGGAUCCACAUCUACGAAUUCGGUAGGAUGAAACAAUUUGGAGAAGCAUAGAUCGGAAGAGCACACGU | 14.9 ± 2.3 |
| target 2 MT 5'PFS AUU 3'PFS AAU (mixed) RNA 1: CACCCGUGCAAAAUUGCAGGGGUCUAAAACCUUCUCCAAAUUGUUUCAUCCU RNA 2: GGGAAUGGAUCCACAUCUACGAAUUCAUUAGGAUGAAACAAUUUGGAGAAGAAUAGAUCGGAAGAGCACACGU | 7.1 ± 1.4 |
| target 2 MT 5'PFS GAU 3'PFS UCU (mixed) RNA 1: CACCCGUGCAAAAUUGCAGGGGUCUAAAACCUUCUCCAAAUUGUUUCAUCCU RNA 2: GGGAAUGGAUCCACAUCUACGAAUUCGAUAGGAUGAAACAAUUUGGAGAAGUCUAGAUCGGAAGAGCACACGU | 56 ± 15 |
| target 2 MT 5'PFS GGU 3'PFS CAC (mixed) RNA 1: CACCCGUGCAAAAUUGCAGGGGUCUAAAACCUUCUCCAAAUUGUUUCAUCCU RNA 2: GGGAAUGGAUCCACAUCUACGAAUUCGGUAGGAUGAAACAAUUUGGAGAAGCACAGAUCGGAAGAGCACACGU | 14.8 ± 2.2 |
| target 2 MT 5'PFS CGC 3'PFS AUA (mixed) RNA 1: CACCCGUGCAAAAUUGCAGGGGUCUAAAACCUUCUCCAAAUUGUUUCAUCCU RNA 2: GGGAAUGGAUCCACAUCUACGAAUUCCGCAGGAUGAAACAAUUUGGAGAAGAUAAGAUCGGAAGAGCACACGU | 4 ± 0.5 |
| target 2 MT 5'PFS ACC 3'PFS UGC (mixed) RNA 1: CACCCGUGCAAAAUUGCAGGGGUCUAAAACCUUCUCCAAAUUGUUUCAUCCU RNA 2: GGGAAUGGAUCCACAUCUACGAAUUCACCAGGAUGAAACAAUUUGGAGAAGUGCAGAUCGGAAGAGCACACGU | 7.7 ± 2.2 |
| target 2 MT 5'PFS ACC 3'PFS UAA (mixed) RNA 1: CACCCGUGCAAAAUUGCAGGGGUCUAAAACCUUCUCCAAAUUGUUUCAUCCU RNA 2: GGGAAUGGAUCCACAUCUACGAAUUCACCAGGAUGAAACAAUUUGGAGAAGUAAAGAUCGGAAGAGCACACGU | ~12 |
| target 2 MT 5'PFS AUU 3'PFS AAA (mixed) RNA 1: CACCCGUGCAAAAUUGCAGGGGUCUAAAACCUUCUCCAAAUUGUUUCAUCCU RNA 2: GGGAAUGGAUCCACAUCUACGAAUUCAUUAGGAUGAAACAAUUUGGAGAAGAAAAGAUCGGAAGAGCACACGU | 4.7 ± 0.5 |
| target 2 MT 5'PFS CGC 3'PFS AUG (mixed) RNA 1: CACCCGUGCAAAAUUGCAGGGGUCUAAAACCUUCUCCAAAUUGUUUCAUCCU RNA 2: GGGAAUGGAUCCACAUCUACGAAUUCCGCAGGAUGAAACAAUUUGGAGAAGAUGAGAUCGGAAGAGCACACGU | 5 ± 0.6 |
| target 2 MT 5'PFS AUU 3'PFS UAU (mixed) RNA 1: CACCCGUGCAAAAUUGCAGGGGUCUAAAACCUUCUCCAAAUUGUUUCAUCCU RNA 2: GGGAAUGGAUCCACAUCUACGAAUUCAUUAGGAUGAAACAAUUUGGAGAAGUAUAGAUCGGAAGAGCACACGU | 5.6 ± 0.4 |
| target 2 MT 5'PFS GCA 3'PFS UUA (mixed) RNA 1: CACCCGUGCAAAAUUGCAGGGGUCUAAAACCUUCUCCAAAUUGUUUCAUCCU RNA 2: GGGAAUGGAUCCACAUCUACGAAUUCGCAAGGAUGAAACAAUUUGGAGAAGUUAAGAUCGGAAGAGCACACGU | 17 ± 4 |
| target 2 MT 5'PFS CUA 3'PFS UCC (mixed) RNA 1: CACCCGUGCAAAAUUGCAGGGGUCUAAAACCUUCUCCAAAUUGUUUCAUCCU RNA 2: GGGAAUGGAUCCACAUCUACGAAUUCCUAAGGAUGAAACAAUUUGGAGAAGUCCAGAUCGGAAGAGCACACGU | 3.4 ± 0.5 |
